The record followed here is paper PMC10180351, “Modulating Substrate Specificity of Rhizobium sp. Histamine Dehydrogenase through Protein Engineering for Food Quality Applications” (Molecules, 2023).

For data set [1], the target named is T1, Rhizobium sp. Histamine Dehydrogenase (Rsp HDH) (Rhizobium sp. 4-9, UniProt Q60I59).
T1 construct: full length (693 aa native), synthetic E. coli-optimised gene in pET28a(+), C-terminal 6xHis tag kept; E. coli BL21 Gold (DE3); IMAC purified; homodimer with 6-S-Cys-FMN, [4Fe-4S], ADP
T1 sequence (Q60I59 1-693): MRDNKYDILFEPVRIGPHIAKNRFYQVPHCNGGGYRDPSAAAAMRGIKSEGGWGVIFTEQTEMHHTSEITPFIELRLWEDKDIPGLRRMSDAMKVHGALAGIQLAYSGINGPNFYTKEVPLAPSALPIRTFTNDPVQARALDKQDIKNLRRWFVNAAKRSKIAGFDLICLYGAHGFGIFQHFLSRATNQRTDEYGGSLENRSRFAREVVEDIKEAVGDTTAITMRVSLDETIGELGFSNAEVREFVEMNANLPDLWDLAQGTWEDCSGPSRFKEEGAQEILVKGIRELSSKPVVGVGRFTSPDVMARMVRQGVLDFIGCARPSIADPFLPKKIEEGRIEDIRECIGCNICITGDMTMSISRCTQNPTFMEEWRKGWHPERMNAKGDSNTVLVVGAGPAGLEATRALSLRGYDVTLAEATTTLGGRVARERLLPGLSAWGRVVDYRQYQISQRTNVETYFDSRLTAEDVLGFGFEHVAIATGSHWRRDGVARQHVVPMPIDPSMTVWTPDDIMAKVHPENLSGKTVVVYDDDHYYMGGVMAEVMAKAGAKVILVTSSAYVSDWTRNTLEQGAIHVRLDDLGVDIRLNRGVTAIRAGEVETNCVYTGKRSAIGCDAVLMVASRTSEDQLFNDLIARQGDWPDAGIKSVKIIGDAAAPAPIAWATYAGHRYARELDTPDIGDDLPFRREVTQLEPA
The data set can be described thus: WST-8 / 1-methoxy PMS colorimetric initial rate, […] nm, substrate inhibition fit. It is filed as biochemical. Conditions: substrate inhibition by histamine itself; 1-methoxy PMS electron carrier; glycine buffer pH 9.0, 37 °C. An excerpt: (§1) Histamine Dehydrogenase (Rsp HDH)
(Tetrazolium dyes change colour on reduction, which living cells bring about.)

Substrate in data set [2]: N=C(N)NCCCCN
The data set can be described thus: purified protein. It is filed as biochemical, Rhizobium sp. 4-9. The note with it: 1-methoxy PMS electron carrier, glycine buffer pH 9.0, 37 °C.
From the text: as §1

Substrate in data set [3]: NCCc1c[nH]cn1
The experiment in a line: purified protein. It is filed as biochemical, Rhizobium sp. 4-9. Conditions: 1-methoxy PMS electron carrier, glycine buffer pH 9.0, 37 °C.
From the text: as §1

By Km is commonly meant the substrate concentration at which the rate is half of its maximum.

For the molecule `NCCc1c[nH]cn1` [histamine], the “Observed Ki” value in data set [1] is given as 2059.0 µM.

B1: Rhizobium sp. Histamine Dehydrogenase (Rsp HDH) (Rhizobium sp. 4-9) (protein)
chain: MRDNKYDILFEPVRIGPHIAKNRFYQVPHCNGGGYRDPSAAAAMRGIKSEGGWGVIFTEQTEMHHTSEITPFIELRLWEDKDIPGLRRMSDAMKVHGALAGIQLAYSGINGPNFYTKEVPLAPSALPIRTFTNDPVQARALDKQDIKNLRRWFVNAAKRSKIAGFDLICLYGAHGFGIFQHFLSRATNQRTDEYGGSLENRSRFAREVVEDIKEAVGDTTAITMRVSLDETIGELGFSNAEVREFVEMNANLPDLWDLAQGTWEDCSGPSRFKEEGAQEILVKGIRELSSKPVVGVGRFTSPDVMARMVRQGVLDFIGCARPSIADPFLPKKIEEGRIEDIRECIGCNICITGDMTMSISRCTQNPTFMEEWRKGWHPERMNAKGDSNTVLVVGAGPAGLEATRALSLRGYDVTLAEATTTLGGRVARERLLPGLSAWGRVVDYRQYQISQRTNVETYFDSRLTAEDVLGFGFEHVAIATGSHWRRDGVARQHVVPMPIDPSMTVWTPDDIMAKVHPENLSGKTVVVYDDDHYYMGGVMAEVMAKAGAKVILVTSSAYVSDWTRNTLEQGAIHVRLDDLGVDIRLNRGVTAIRAGEVETNCVYTGKRSAIGCDAVLMVASRTSEDQLFNDLIARQGDWPDAGIKSVKIIGDAAAPAPIAWATYAGHRYARELDTPDIGDDLPFRREVTQLEPA
notes: full length (693 aa native), synthetic E. coli-optimised gene in pET28a(+), C-terminal 6xHis tag kept; E. coli BL21 Gold (DE3); IMAC purified; homodimer with 6-S-Cys-FMN, [4Fe-4S], ADP
For the molecule B1, the Km was 130.1 µM in “purified protein [2]” and 38.24 µM in “purified protein [3]”.

B2: Rhizobium sp. Histamine Dehydrogenase (Rsp HDH) (Rhizobium sp. 4-9; F72T) (protein)
chain: MRDNKYDILFEPVRIGPHIAKNRFYQVPHCNGGGYRDPSAAAAMRGIKSEGGWGVIFTEQTEMHHTSEITPTIELRLWEDKDIPGLRRMSDAMKVHGALAGIQLAYSGINGPNFYTKEVPLAPSALPIRTFTNDPVQARALDKQDIKNLRRWFVNAAKRSKIAGFDLICLYGAHGFGIFQHFLSRATNQRTDEYGGSLENRSRFAREVVEDIKEAVGDTTAITMRVSLDETIGELGFSNAEVREFVEMNANLPDLWDLAQGTWEDCSGPSRFKEEGAQEILVKGIRELSSKPVVGVGRFTSPDVMARMVRQGVLDFIGCARPSIADPFLPKKIEEGRIEDIRECIGCNICITGDMTMSISRCTQNPTFMEEWRKGWHPERMNAKGDSNTVLVVGAGPAGLEATRALSLRGYDVTLAEATTTLGGRVARERLLPGLSAWGRVVDYRQYQISQRTNVETYFDSRLTAEDVLGFGFEHVAIATGSHWRRDGVARQHVVPMPIDPSMTVWTPDDIMAKVHPENLSGKTVVVYDDDHYYMGGVMAEVMAKAGAKVILVTSSAYVSDWTRNTLEQGAIHVRLDDLGVDIRLNRGVTAIRAGEVETNCVYTGKRSAIGCDAVLMVASRTSEDQLFNDLIARQGDWPDAGIKSVKIIGDAAAPAPIAWATYAGHRYARELDTPDIGDDLPFRREVTQLEPA
notes: as for B1
For B2, the Km was found to be 112.9 µM in “purified protein [2]” and 194.6 µM in the data set “purified protein [3]”.

B3: Rhizobium sp. Histamine Dehydrogenase (Rsp HDH) (Rhizobium sp. 4-9; N110V) (protein)
chain: MRDNKYDILFEPVRIGPHIAKNRFYQVPHCNGGGYRDPSAAAAMRGIKSEGGWGVIFTEQTEMHHTSEITPFIELRLWEDKDIPGLRRMSDAMKVHGALAGIQLAYSGIVGPNFYTKEVPLAPSALPIRTFTNDPVQARALDKQDIKNLRRWFVNAAKRSKIAGFDLICLYGAHGFGIFQHFLSRATNQRTDEYGGSLENRSRFAREVVEDIKEAVGDTTAITMRVSLDETIGELGFSNAEVREFVEMNANLPDLWDLAQGTWEDCSGPSRFKEEGAQEILVKGIRELSSKPVVGVGRFTSPDVMARMVRQGVLDFIGCARPSIADPFLPKKIEEGRIEDIRECIGCNICITGDMTMSISRCTQNPTFMEEWRKGWHPERMNAKGDSNTVLVVGAGPAGLEATRALSLRGYDVTLAEATTTLGGRVARERLLPGLSAWGRVVDYRQYQISQRTNVETYFDSRLTAEDVLGFGFEHVAIATGSHWRRDGVARQHVVPMPIDPSMTVWTPDDIMAKVHPENLSGKTVVVYDDDHYYMGGVMAEVMAKAGAKVILVTSSAYVSDWTRNTLEQGAIHVRLDDLGVDIRLNRGVTAIRAGEVETNCVYTGKRSAIGCDAVLMVASRTSEDQLFNDLIARQGDWPDAGIKSVKIIGDAAAPAPIAWATYAGHRYARELDTPDIGDDLPFRREVTQLEPA
notes: as for B1
Take B3: the figures for the Michaelis constant (Km) in “purified protein [2]” and in “purified protein [3]” were 170.1 µM and 159.5 µM, respectively.
